# Results published in US20210388087A1 (Chugai, published 2021).
# Positions count from the first letter of the chain named. Names may count otherwise.
# B1: H183/L072 VH I51S (antibody, name in Kabat numbering, V domains shown)
# VH: QVQLVESGGGLVQPGRSLRLSCAASGFTFSNAWMHWVRQAPGKGLEWVAQSKDKGNAYAAYYAPSVKGRFTISRDDSKNSIYLQMNSLKTEDTAVYYCHYVHYASASTVLPAFGVDAWGQGTTVTVSS
# VL: DIVMTQSPLSLPVTPGEPASISCQASQELVHMNRNTYLHWYQQKPGQAPRLLIYKVSNRFPGVPDRFSGSGSGTDFTLKISRVEAEDVGVYYCAQGTSVPFTFGQGTKLEIK
# B2: H183/L072 VH M34Y (antibody, name in Kabat numbering, V domains shown)
# VH: B1 VH with M34Y, S51I
# VL: B1 VL
# B3: H183/L072 VH K64P (antibody, name in Kabat numbering, V domains shown)
# VH: B1 VH with S51I, K67P
# VL: B1 VL
# B4: H183/L072 VH L100dI (antibody, name in Kabat numbering, V domains shown)
# VH: B1 VH with S51I, L110I
# VL: B1 VL
# B5: H183/L072 VH K52bP (antibody, name in Kabat numbering, V domains shown)
# VH: B1 VH with S51I, K54P
# VL: B1 VL
# B6: H183/L072 VH M34I (antibody, name in Kabat numbering, V domains shown)
# VH: B1 VH with M34I, S51I
# VL: B1 VL
# B7: H183/L072 VH K52bV (antibody, name in Kabat numbering, V domains shown)
# VH: B1 VH with S51I, K54V
# VL: B1 VL
# B8: H183/L072 VH K52bA (antibody, name in Kabat numbering, V domains shown)
# VH: B1 VH with S51I, K54A
# VL: B1 VL
# B9: H183/L072 VH I51V (antibody, name in Kabat numbering, V domains shown)
# VH: B1 VH with S51V
# VL: B1 VL
# B10: H183/L072 VH K64L (antibody, name in Kabat numbering, V domains shown)
# VH: B1 VH with S51I, K67L
# VL: B1 VL
# B11: H183/L072 VH K52bE (antibody, name in Kabat numbering, V domains shown)
# VH: B1 VH with S51I, K54E
# VL: B1 VL
# B12: H183/L072 VH L100dM (antibody, name in Kabat numbering, V domains shown)
# VH: B1 VH with S51I, L110M
# VL: B1 VL
# B13: H183/L072 VH K52bY (antibody, name in Kabat numbering, V domains shown)
# VH: B1 VH with S51I, K54Y
# VL: B1 VL
# B14: H183/L072 VH K52Y (antibody, name in Kabat numbering, V domains shown)
# VH: B1 VH with S51I, K52Y
# VL: B1 VL
# B15: H183/L072 VH K52L (antibody, name in Kabat numbering, V domains shown)
# VH: B1 VH with S51I, K52L
# VL: B1 VL
# B16: H183/L072 VH N31I (antibody, name in Kabat numbering, V domains shown)
# VH: B1 VH with N31I, S51I
# VL: B1 VL
# B17: H183/L072 VH K52bQ (antibody, name in Kabat numbering, V domains shown)
# VH: B1 VH with S51I, K54Q
# VL: B1 VL
# B18: H183/L072 VH M34P (antibody, name in Kabat numbering, V domains shown)
# VH: B1 VH with M34P, S51I
# VL: B1 VL
# B19: H183/L072 VH K64A (antibody, name in Kabat numbering, V domains shown)
# VH: B1 VH with S51I, K67A
# VL: B1 VL
# B20: H183/L072 VH K52bG (antibody, name in Kabat numbering, V domains shown)
# VH: B1 VH with S51I, K54G
# VL: B1 VL
# B21: H183/L072 VH N31G (antibody, name in Kabat numbering, V domains shown)
# VH: B1 VH with N31G, S51I
# VL: B1 VL
# B22: H183/L072 VH M34F (antibody, name in Kabat numbering, V domains shown)
# VH: B1 VH with M34F, S51I
# VL: B1 VL
# B23: H183/L072 VH I51Y (antibody, name in Kabat numbering, V domains shown)
# VH: B1 VH with S51Y
# VL: B1 VL
# B24: H183/L072 VH K52R (antibody, name in Kabat numbering, V domains shown)
# VH: B1 VH with S51I, K52R
# VL: B1 VL
# B25: H183/L072 VH K64I (antibody, name in Kabat numbering, V domains shown)
# VH: B1 VH with S51I, K67I
# VL: B1 VL
# B26: H183/L072 VH K52bW (antibody, name in Kabat numbering, V domains shown)
# VH: B1 VH with S51I, K54W
# VL: B1 VL
# B27: H183/L072 VH K64M (antibody, name in Kabat numbering, V domains shown)
# VH: B1 VH with S51I, K67M
# VL: B1 VL
# B28: H183/L072 VH K52bR (antibody, name in Kabat numbering, V domains shown)
# VH: B1 VH with S51I, K54R
# VL: B1 VL
# B29: H183/L072 VH K52bM (antibody, name in Kabat numbering, V domains shown)
# VH: B1 VH with S51I, K54M
# VL: B1 VL
# B30: H183/L072 VH L100dA (antibody, name in Kabat numbering, V domains shown)
# VH: B1 VH with S51I, L110A
# VL: B1 VL
# B31: H183/L072 VH K52bT (antibody, name in Kabat numbering, V domains shown)
# VH: B1 VH with S51I, K54T
# VL: B1 VL
# B32: H183/L072 VH I51T (antibody, name in Kabat numbering, V domains shown)
# VH: B1 VH with S51T
# VL: B1 VL
# B33: H183/L072 VH K52M (antibody, name in Kabat numbering, V domains shown)
# VH: B1 VH with S51I, K52M
# VL: B1 VL
# B34: H183/L072 VH N31F (antibody, name in Kabat numbering, V domains shown)
# VH: B1 VH with N31F, S51I
# VL: B1 VL
# B35: H183/L072 VH K52bN (antibody, name in Kabat numbering, V domains shown)
# VH: B1 VH with S51I, K54N
# VL: B1 VL
# B36: H183/L072 VH K52N (antibody, name in Kabat numbering, V domains shown)
# VH: B1 VH with S51I, K52N
# VL: B1 VL
# B37: H183/L072 VH K52bF (antibody, name in Kabat numbering, V domains shown)
# VH: B1 VH with S51I, K54F
# VL: B1 VL
# B38: H183/L072 VH M34V (antibody, name in Kabat numbering, V domains shown)
# VH: B1 VH with M34V, S51I
# VL: B1 VL
# B39: H183/L072 VH K52bS (antibody, name in Kabat numbering, V domains shown)
# VH: B1 VH with S51I, K54S
# VL: B1 VL
# B40: H183/L072 VH K52bL (antibody, name in Kabat numbering, V domains shown)
# VH: B1 VH with S51I, K54L
# VL: B1 VL
# B41: H183/L072 VH N31A (antibody, name in Kabat numbering, V domains shown)
# VH: B1 VH with N31A, S51I
# VL: B1 VL
# B42: H183/L072 VH K52bI (antibody, name in Kabat numbering, V domains shown)
# VH: B1 VH with S51I, K54I
# VL: B1 VL
# B43: H183/L072 VH K52Q (antibody, name in Kabat numbering, V domains shown)
# VH: B1 VH with S51I, K52Q
# VL: B1 VL
# B44: H183/L072 VH N31H (antibody, name in Kabat numbering, V domains shown)
# VH: B1 VH with N31H, S51I
# VL: B1 VL
# B45: H183/L072 VH M34H (antibody, name in Kabat numbering, V domains shown)
# VH: B1 VH with M34H, S51I
# VL: B1 VL
# B46: H183/L072 VH K52bH (antibody, name in Kabat numbering, V domains shown)
# VH: B1 VH with S51I, K54H
# VL: B1 VL
# B47: H183/L072 VH M34L (antibody, name in Kabat numbering, V domains shown)
# VH: B1 VH with M34L, S51I
# VL: B1 VL
# Target: T1, Human CD137 ECD (human)
# T1 construct: also called 4-1BB
# Test: single mutant vs template dBBDu183H
# T1 sequence (chain, as listed by the source limits assumed): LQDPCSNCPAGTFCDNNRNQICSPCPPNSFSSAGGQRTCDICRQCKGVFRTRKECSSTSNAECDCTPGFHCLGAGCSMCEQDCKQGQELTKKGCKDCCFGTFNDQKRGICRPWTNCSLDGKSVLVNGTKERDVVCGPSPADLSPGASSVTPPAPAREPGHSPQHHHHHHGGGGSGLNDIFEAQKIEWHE
row,fold change of affinity,Binder
1,0.4 fold,B1
2,0 fold,B2
3,0.7 fold,B3
4,0 fold,B4
5,0.4 fold,B5
6,1.4 fold,B6
7,0.6 fold,B7
8,1 fold,B8
9,1 fold,B9
10,1.1 fold,B10
11,0.5 fold,B11
12,0.9 fold,B12
13,1 fold,B13
14,0 fold,B14
15,0.1 fold,B15
16,0.3 fold,B16
17,0.8 fold,B17
18,0.3 fold,B18
19,1.2 fold,B19
20,0.9 fold,B20
21,0.3 fold,B21
22,2.5 fold,B22
23,0 fold,B23
24,0.2 fold,B24

row,fold change of affinity,Binder
1,1.1 fold,B25
2,0.9 fold,B26
3,1.1 fold,B27
4,1.2 fold,B28
5,0.6 fold,B29
6,0.8 fold,B30
7,0.1 fold,B31
8,0.3 fold,B32
9,0.3 fold,B33
10,0.2 fold,B34
11,0.2 fold,B35
12,0.2 fold,B36
13,0.7 fold,B37
14,1 fold,B38
15,0.8 fold,B39
16,0.5 fold,B40
17,0.3 fold,B41
18,0.8 fold,B42
19,0.3 fold,B43
20,0.4 fold,B44
21,0.1 fold,B45
22,0.7 fold,B46
23,1.8 fold,B47
